Where a chain is given by its changes, count along the chain named. Names and notes keep the numbering of the source.
B1: tag-cleaved SSNA1 S89A (natural protein, human)
chain: GPMTQQGAALQNYNNELVKCIEELCQKREELCRQIQEEEDEKQRLQNEVRQLTEKLARVNENLARKIASRNEFDRTIAETEAAYLKILESAQTLLSVLKREAGNLTKATAPDQKSSGGRDS
B2: tag-cleaved SSNA1 (full-length human SSNA1, 1-119) (natural protein)
chain: B1 chain with A91S
B3: tag-cleaved SSNA1 S89D (natural protein, human)
chain: B1 chain with A91D
B4: tag-cleaved SSNA1 1-97 (domain or fragment, human)
chain: GPMTQQGAALQNYNNELVKCIEELCQKREELCRQIQEEEDEKQRLQNEVRQLTEKLARVNENLARKIASRNEFDRTIAETEAAYLKILESSQTLLSVLK
B5: tag-cleaved SSNA1 1-90 (domain or fragment, human)
chain: GPMTQQGAALQNYNNELVKCIEELCQKREELCRQIQEEEDEKQRLQNEVRQLTEKLARVNENLARKIASRNEFDRTIAETEAAYLKILESSQ
B6: tag-cleaved SSNA1 1-104 (domain or fragment, human)
chain: GPMTQQGAALQNYNNELVKCIEELCQKREELCRQIQEEEDEKQRLQNEVRQLTEKLARVNENLARKIASRNEFDRTIAETEAAYLKILESSQTLLSVLKREAGNLT

What was measured:
negative-staining TEM = biological target: the molecule itself; experiment: negative-staining TEM
SEC = biological target: the molecule itself; experiment: SEC
SEC-MALS = biological target: the molecule itself; experiment: SEC-MALS

Row | Protein | binding result (negative-staining TEM) | binding result (SEC) | stoichiometry N (SEC-MALS)
1 | B1 | binds |  | 
2 | B2 |  | binds | 
3 | B3 |  |  | 2
4 | B4 | binds |  | 
5 | B5 |  |  | 2
6 | B6 |  | binds | 

Reference: article doi:10.1101/2025.04.28.648957 (bioRxiv, 2025)
